Experimental data from patent publication US20030152959, “Method of using estrogen-related receptor alpha (ERRalpha) status to determine prognosis, treatment strategy and predisposition to breast cancer, and method of using ERRalpha as a therapeutic target for the treatment of breast cancer” (published 2003).

T1: ERRα1 (estrogen-related receptor alpha 1, NR3B1) (Homo sapiens, UniProt P11474 P11474:1-423)
T1 sequence: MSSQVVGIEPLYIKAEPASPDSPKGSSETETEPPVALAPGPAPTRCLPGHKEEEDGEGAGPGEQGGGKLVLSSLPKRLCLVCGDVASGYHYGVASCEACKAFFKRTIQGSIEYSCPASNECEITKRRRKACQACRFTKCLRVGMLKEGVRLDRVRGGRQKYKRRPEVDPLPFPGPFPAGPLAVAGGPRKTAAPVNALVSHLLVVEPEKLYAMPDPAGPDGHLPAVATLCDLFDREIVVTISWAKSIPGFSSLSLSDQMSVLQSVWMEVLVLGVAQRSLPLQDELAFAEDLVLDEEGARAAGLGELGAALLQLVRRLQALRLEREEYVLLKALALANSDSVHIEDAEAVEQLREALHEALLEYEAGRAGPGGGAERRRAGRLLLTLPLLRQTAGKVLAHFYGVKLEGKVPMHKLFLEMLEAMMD


Biological target: T1, ERRα1 (estrogen-related receptor alpha …)
Assay: competition; competition EMSA, COS extract
Details: tags: COS / COS-M6 whole-cell extract, pcDNA3.1-hERRα1 or pRSV-hERRα1

| Binder | binding signal [RBA vs reference ERRE] |
| --- | --- |
| EGF site (dsDNA) DNA 1: CAAATAATGGGCTGAAGGTGAACTATCTTTACT DNA 2: AGTAAAGATAGTTCACCTTCAGCCCATTATTTG | 0.14 |
| aromatase site (dsDNA) DNA 1: CCTGAGACTCTACCAAGGTCAGAAATGCTGCAA DNA 2: TTGCAGCATTTCTGACCTTGGTAGAGTCTCAGG | 0.17 |
| IGF2 site 3 (dsDNA) DNA 1: GGTGGACGCTGCTGAAGGTGAGCGAGACCCCGG DNA 2: CCGGGGTCTCGCTCACCTTCAGCAGCGTCCACC | 0.06 |
| Prolactin site 3 (dsDNA) DNA 1: CCTCAGAGTGGCTCAGGGTCAGAGAAGGTAGAG DNA 2: CTCTACCTTCTCTGACCCTGAGCCACTCTGAGG | 0.07 |
| PgR site 3 (dsDNA) DNA 1: TCCTAAGGACTGTCAAGGTCATCAAATACAAGG DNA 2: CCTTGTATTTGATGACCTTGACAGTCCTTAGGA | 1.45 |
| Prolactin site 2 (dsDNA) DNA 1: CAAATTTGAAACTAAAGGTCACAGGCTGCTTTA DNA 2: TAAAGCAGCCTGTGACCTTTAGTTTCAAATTTG | 0.33 |
| ERβ promoter site (dsDNA) DNA 1: GGTGCTCCCACTTAGAGGTCACGCGCGGCGTCG DNA 2: CGACGCCGCGCGTGACCTCTAAGTGGGAGCACC | 0.54 |
| Prolactin site 1 (dsDNA) DNA 1: TGTCCATTTTCTTCTAGGTCAACCCCAATGGTA DNA 2: TACCATTGGGGTTGACCTAGAAGAAAATGGACA | 0.06 |
| BRCA1 site (dsDNA) DNA 1: GTAATTGCTGTACGAAGGTCAGAATCGCTACCT DNA 2: AGGTAGCGATTCTGACCTTCGTACAGCAATTAC | 0.17 |
| ErbB2 ERRE (dsDNA) DNA 1: AAAGGAACTTTCCCAAGGTCACAGAGCTGAGCT DNA 2: AGCTCAGCTCTGTGACCTTGGGAAAGTTCCTTT | 1.01 |
| ERα promoter site (dsDNA) DNA 1: ATGTTTGGTATGAAAAGGTCACATTTTATATTC DNA 2: GAATATAAAATGTGACCTTTTCATACCAAACAT | 0.11 |
| cyclin D1 site (dsDNA) DNA 1: GCGAGGAAAGCGTGAAGGTGATTTCAGTTAATT DNA 2: AATTAACTGAAATCACCTTCACGCTTTCCTCGC | 0.07 |
| BRCA2 site (dsDNA) DNA 1: AGAACATCCCTTTTAAGGTCAGAACAAAGGTAT DNA 2: ATACCTTTGTTCTGACCTTAAAAGGGATGTTCT | 0.08 |
| elk1 site (dsDNA) DNA 1: CTCCCATCTCACTTAAGGTCAAAGCCAGGGTCC DNA 2: GGACCCTGGCTTTGACCTTAAGTGAGATGGGAG | 0.22 |
| Cathepsin D site (dsDNA) DNA 1: TGGCATATTGGGTGAAGGTCAAGGGAGTGGCTT DNA 2: AAGCCACTCCCTTGACCTTCACCCAATATGCCA | 0.49 |
| IGF1R site (dsDNA) DNA 1: GCTCCGGCTCGCTGAAGGTCACAGCCGAGGCGA DNA 2: TCGCCTCGGCTGTGACCTTCAGCGAGCCGGAGC | 0.36 |
| pS2 site 1 (dsDNA) DNA 1: TCCCTTCCCCCTGCAAGGTCACGGTGGCCACCC DNA 2: GGGTGGCCACCGTGACCTTGCAGGGGGAAGGGA | 0.49 |
| hMDM2 site (dsDNA) DNA 1: GGGAGTTCAGGGTAAAGGTCACGGGGCCGGGGC DNA 2: GCCCCGGCCCCGTGACCTTTACCCTGAACTCCC | 0.35 |
| PgR site 1 (dsDNA) DNA 1: AAAATTGTTTTGTCTAGGTCATTTGCATTTTCA DNA 2: TGAAAATGCAAATGACCTAGACAAAACAATTTT | 0.14 |
| pS2 site 2 (dsDNA) DNA 1: GTAGGACCTGGATTAAGGTCAGGTTGGAGGAGA DNA 2: TCTCCTCCAACCTGACCTTAATCCAGGTCCTAC | 0.12 |
| IGF2 site 2 (dsDNA) DNA 1: CTGTCGGCAGGAACAAGGTCACCCCTTGGCGTT DNA 2: AACGCCAAGGGGTGACCTTGTTCCTGCCGACAG | 0.25 |
| PgR site 2 (dsDNA) DNA 1: TCCTTGCTAAACCCAAGGTCATAAATCTTTTCT DNA 2: AGAAAAGATTTATGACCTTGGGTTTAGCAAGGA | 0.91 |

Biological target: T1, ERRα1 (estrogen-related receptor alpha …)
Assay: cell_activity; HeLa, 3xERE-TK-luc reporter
Details: tags:
Method: Transient Transfections and Luciferase Assays: To assess the role ERRα plays in regulating transcription of an ERE-containing promoter, MCF-7 or HeLa cells grown in 12-well tissue culture plates were co-transfected in parallel with 0.5 μg of pTK-luc versus p3xERE-TK-luc along with the indicated amounts of the empty cloning vector pcDNA3.1, the ERRα1 expression plasmid pcDNA3.1-hERRα1, or mutant variants thereof. […] Cells were harvested 48 h post-transfection, and lysates were assayed for luciferase activity normalized to protein concentration as previously described (36).
To determine whether the transcriptional repression observed here was dependent upon the cell line, we repeated the cotransfection experiments as described above except using ER-negative HeLa cells in place of ER-positive MCF-7 cells (FIG. 19).

| Binder | activity [fold activation] |
| --- | --- |
| Consensus palindromic ERE (dsDNA) DNA 1: TAAGCTTAGGTCACAGTGACCTAAGCTTA DNA 2: TAAGCTTAGGTCACTGTGACCTAAGCTTA | 2.5 |
